From patent US20210206825A1 (published 2021)

B1: P114AR5P74-A5 (designed binder, not shown: small tags and cut ends)
chain: LPAPKNLVVSRVTEDSARLSWTAPDAAFDSFWIRYDEVVVGGEAIVLTVPGSERSYDLTGLKPGTEYYVNILGVKGGSISVPLSAIFTT
B2: P54CR4-31 (designed binder, not shown: small tags and cut ends)
chain: LPAPKNLVVSEVTEDSLRLSWTAPDAAFDSFLIQYQESEKVGEAINLTVPGSERSYDLTGLKPGTEYTVSIYGVLGSYVFEHDVMLPLSAEFTT
B3: ECB109 (designed binder, not shown: small tags and cut ends)
chain: MLPAPKNLVVSEVTEDSARLSWDDPHAFYESFLIQYQESEKVGEAIVLTVPGSERSYDLTGLKPGTEYTVSIYGVHNVYKDTNIRGLPLSAIFTTAPAPAPAPAPLPAPKNLVVSRVTEDSARLSWTAPDAAFDSFWIRYFEFLGSGEAIVLTVPGSERSYDLTGLKPGTEYVVNILSVKGGSISPPLSAIFTT
B4: P53A1R5-17 (designed binder, not shown: small tags and cut ends)
chain: LPAPKNLVVSEVTEDSLRLSWADPHGFYDSFLIQYQESEKVGEAINLTVPGSERSYDLTGLKPGTEYTVSIYGVHNVYKDTNMRGLPLSAEFTT
B5: P54AR4-73 (designed binder, not shown: small tags and cut ends)
chain: LPAPKNLVVSEVTEDSLRLSWTWPYADLDSFLIQYQESEKVGEAINLTVPGSERSYDLTGLKPGTEYTVSIYGVHNVYKDTNMRGLPLSAEFTT
B6: P54AR4-17 (designed binder, not shown: small tags and cut ends)
chain: LPAPKNLVVSEVTEDSLRLSWTYDRDGYDSFLIQYQESEKVGEAINLTVPGSERSYDLTGLKPGTEYTVSIYGVHNVYKDTNMRGLPLSAEFTT
B7: P54AR4-48 (designed binder, not shown: small tags and cut ends)
chain: LPAPKNLVVSEVTEDSLRLSWDDPRGFYESFLIQYQESEKVGEAINLTVPGSERSYDLTGLKPGTEYTVSIYGVHNVYKDTNMRGLPLSAEFTT
B8: P54AR4-83 (designed binder, not shown: small tags and cut ends)
chain: LPAPKNLVVSEVTEDSLRLSWDDPWAFYESFLIQYQESEKVGEAINLTVPGSERSYDLTGLKPGTEYTVSIYGVHNVYKDTNMRGLPLSAEFTT

Columns and labels:
Experiment in all cases: cell-based or functional assay
human c-Met on cells = human c-Met on cells (human, UniProt P08581 25-1390)
human c-Met on cells, sequence (P08581 other isoform, or with tags, fused parts or gaps limits assumed): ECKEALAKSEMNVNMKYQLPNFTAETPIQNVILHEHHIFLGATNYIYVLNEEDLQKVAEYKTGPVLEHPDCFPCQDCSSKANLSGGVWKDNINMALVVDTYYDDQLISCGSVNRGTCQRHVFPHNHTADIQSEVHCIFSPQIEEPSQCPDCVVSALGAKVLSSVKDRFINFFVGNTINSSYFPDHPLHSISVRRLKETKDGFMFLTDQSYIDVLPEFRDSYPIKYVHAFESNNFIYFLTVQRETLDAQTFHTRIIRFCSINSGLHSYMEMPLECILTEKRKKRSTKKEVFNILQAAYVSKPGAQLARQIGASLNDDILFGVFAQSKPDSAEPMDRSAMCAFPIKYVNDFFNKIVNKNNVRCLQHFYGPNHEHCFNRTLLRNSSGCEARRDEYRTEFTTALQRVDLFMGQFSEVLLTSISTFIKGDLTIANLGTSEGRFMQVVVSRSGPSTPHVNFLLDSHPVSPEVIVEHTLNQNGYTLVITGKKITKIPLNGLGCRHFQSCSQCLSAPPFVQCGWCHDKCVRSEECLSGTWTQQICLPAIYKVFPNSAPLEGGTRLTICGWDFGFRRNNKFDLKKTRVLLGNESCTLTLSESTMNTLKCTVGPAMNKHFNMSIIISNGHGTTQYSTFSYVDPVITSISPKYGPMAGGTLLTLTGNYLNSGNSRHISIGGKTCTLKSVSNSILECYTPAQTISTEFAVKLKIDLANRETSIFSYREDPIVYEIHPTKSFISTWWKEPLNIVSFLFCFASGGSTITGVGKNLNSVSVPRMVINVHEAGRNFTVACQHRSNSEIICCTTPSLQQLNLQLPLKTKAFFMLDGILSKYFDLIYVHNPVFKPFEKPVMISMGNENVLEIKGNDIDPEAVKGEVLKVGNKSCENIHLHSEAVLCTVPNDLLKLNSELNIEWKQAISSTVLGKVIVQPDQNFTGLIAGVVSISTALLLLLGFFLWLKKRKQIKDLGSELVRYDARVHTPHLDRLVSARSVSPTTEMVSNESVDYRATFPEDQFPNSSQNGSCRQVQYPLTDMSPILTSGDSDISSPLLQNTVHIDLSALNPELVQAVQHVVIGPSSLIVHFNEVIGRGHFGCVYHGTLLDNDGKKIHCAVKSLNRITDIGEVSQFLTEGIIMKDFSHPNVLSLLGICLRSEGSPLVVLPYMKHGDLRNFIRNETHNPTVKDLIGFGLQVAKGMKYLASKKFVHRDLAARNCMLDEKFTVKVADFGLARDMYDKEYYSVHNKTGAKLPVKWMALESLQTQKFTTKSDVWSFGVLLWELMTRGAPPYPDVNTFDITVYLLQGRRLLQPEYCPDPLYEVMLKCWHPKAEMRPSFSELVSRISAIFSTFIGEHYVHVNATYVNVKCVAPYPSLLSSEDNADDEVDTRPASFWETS

human EGFR on cells [1] = target: T1, human EGFR on cells (human, UniProt P00533 25-1210)
human EGFR on cells [2] = target: T1, human EGFR on cells; remark: listed apart in the source

Row | Binder | Phospho-EGFR IC50 (A431 cells, Tyr1173) (human EGFR on cells [1]) [µM] | further results
1 | B1 | – | inhibition of c-Met phosphorylation in NCI-H292 cells (IC50) (human c-Met on cells): 0.61 µM
2 | B2 | 0.179 | –
3 | B3 | – | pEGFR inhibition in H292 cells (IC50) (human EGFR on cells [2]): 432 nM
4 | B4 | > 2.5 | –
5 | B5 | 0.141 | –
6 | B6 | 0.184 | –
7 | B7 | 0.17 | –
8 | B8 | 0.018 | –
